Assay results taken from publication doi:10.1101/2021.11.13.468331 (bioRxiv, 2021).
Read-outs that look alike come from different tables or passages of the source.

B1: full-length b5R released from the linker-cleaved SCD1-cyt b5-b5R fusion (enzyme, mouse)
chain: GMGAQLSTLSHVVLSPVWFIYSLFMKLFQRSTPAITLENPDIKYPLRLIDKEVISPDTRRFRFALPSPQHILGLPIGQHIYLSTRIDGNLVIRPYTPVSSDDDKGFVDLVVKVYFKDTHPKFPAGGKMSQYLENMKIGDTIEFRGPNGLLVYQGKGKFAIRADKKSNPVVRTVKSVGMIAGGTGITPMLQVIRAVLKDPNDHTVCYLLFANQSEKDILLRPELEELRNEHSARFKLWYTVDKAPDAWDYSQGFVNEEMIRDHLPTPGEEPLILMCGPPPMIQFACLPNLERVGHPKERCFTF

Assays:
Test in all cases: SEC
[1] = biological target: SCD1 released from the linker-cleaved SCD1-cyt b5 fusion (mouse)
[2] = biological target: T1, SCD1 released from the linker-cleaved SCD1-cyt b5-b5R fusion (mouse, UniProt P13516 1-355)
T1 sequence: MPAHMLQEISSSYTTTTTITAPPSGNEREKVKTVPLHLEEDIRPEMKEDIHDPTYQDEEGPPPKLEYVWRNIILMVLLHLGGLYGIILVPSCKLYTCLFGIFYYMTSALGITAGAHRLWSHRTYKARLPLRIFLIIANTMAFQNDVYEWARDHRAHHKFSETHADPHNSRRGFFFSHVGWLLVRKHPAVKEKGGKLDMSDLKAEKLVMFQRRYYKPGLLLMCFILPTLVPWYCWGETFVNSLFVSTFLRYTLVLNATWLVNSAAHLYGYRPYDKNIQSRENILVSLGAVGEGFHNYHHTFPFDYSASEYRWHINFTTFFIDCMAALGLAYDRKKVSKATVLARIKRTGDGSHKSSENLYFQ

[3] = biological target: T2, full-length b5R released from the linker-cleaved cyt b5-b5R fusion (mouse, UniProt Q9DCN2 1-301)
T2 sequence: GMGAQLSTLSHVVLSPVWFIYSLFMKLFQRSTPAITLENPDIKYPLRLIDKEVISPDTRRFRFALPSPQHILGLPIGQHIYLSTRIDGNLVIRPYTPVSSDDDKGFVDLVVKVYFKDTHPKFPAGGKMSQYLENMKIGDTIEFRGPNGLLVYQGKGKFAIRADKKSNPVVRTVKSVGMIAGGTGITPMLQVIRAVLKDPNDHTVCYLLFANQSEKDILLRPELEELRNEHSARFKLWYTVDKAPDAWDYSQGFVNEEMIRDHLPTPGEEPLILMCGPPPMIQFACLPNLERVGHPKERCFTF

[4] = biological target: T2, full-length b5R released from the …; remark: listed apart in the source
[5] = biological target: B1

For “full-length cyt b5 M126A released from the linker-cleaved SCD1-cyt b5 fusion (from UniProt P56395 1-134) (natural protein)”, the percent of cyt b5 dissociated from the complex [1] was 50%.

B1: binds [2].

B2: full-length cyt b5 L121 Trp mutant released from the linker-cleaved cyt b5-b5R fusion (natural protein, mouse)
chain: MAGQSDKDVKYYTLEEIQKHKDSKSTWVILHHKVYDLTKFLEEHPGGEEVLREQAGGDATENFEDVGHSTDARELSKTYIIGELHPDDRSKIAKPSDTLITTVESNSSWWTNWVIPAISAWAVALMYRLYMAEDENLYFQ
B2: binds [3].

B3: full-length cyt b5 V123 Trp mutant released from the linker-cleaved cyt b5-b5R fusion (natural protein, mouse)
chain: MAGQSDKDVKYYTLEEIQKHKDSKSTWVILHHKVYDLTKFLEEHPGGEEVLREQAGGDATENFEDVGHSTDARELSKTYIIGELHPDDRSKIAKPSDTLITTVESNSSWWTNWVIPAISALAWALMYRLYMAEDENLYFQ
B3: binds [3].

B4: full-length cyt b5 A124 Trp mutant released from the linker-cleaved cyt b5-b5R fusion (natural protein, mouse)
chain: MAGQSDKDVKYYTLEEIQKHKDSKSTWVILHHKVYDLTKFLEEHPGGEEVLREQAGGDATENFEDVGHSTDARELSKTYIIGELHPDDRSKIAKPSDTLITTVESNSSWWTNWVIPAISALAVWLMYRLYMAEDENLYFQ
B4: binds [3].

B5: full-length cyt b5 released from the linker-cleaved cyt b5-b5R fusion (natural protein, mouse)
chain: MAGQSDKDVKYYTLEEIQKHKDSKSTWVILHHKVYDLTKFLEEHPGGEEVLREQAGGDATENFEDVGHSTDARELSKTYIIGELHPDDRSKIAKPSDTLITTVESNSSWWTNWVIPAISALAVALMYRLYMAEDENLYFQ
B5: binds [4].

B6: full-length cyt b5 released from the linker-cleaved SCD1-cyt b5-b5R fusion (natural protein, mouse)
chain: GMAGQSDKDVKYYTLEEIQKHKDSKSTWVILHHKVYDLTKFLEEHPGGEEVLREQAGGDATENFEDVGHSTDARELSKTYIIGELHPDDRSKIAKPSDTLITTVESNSSWWTNWVIPAISALAVALMYRLYMAEDENLYFQ
B6: binds [2]; binds [5].
